Laboratory results taken from publication PMC4576209, “Biochemical characterization of FIKK8 – A unique protein kinase from the malaria parasite Plasmodium falciparum and other apicomplexans” (Molecular and Biochemical Parasitology, 2015).

Substrate: Nc1ncnc2c1ncn2[C@@H]1O[C@H](COP(=O)(O)OP(=O)(O)OP(=O)(O)O)[C@@H](O)[C@H]1O
Experiment: LDH-PK coupled kinase assay
Assay type: biochemical, Cryptosporidium parvum
Details: peptide substrate; MgCl2 stated only for autophosphorylation

B1: CpFIKKd (Cryptosporidium parvum Iowa II) (protein)
chain: GKNDKVCYTWKEAKQLISKLKSSTKLYKFNGVPFSDWAHEKIPTLGASPTSCRVQEMFKSRIYLEKNNEVYATLFIKKIPRNIWSKQWEMHEIWDGDYVTDGEDFVMEAAALAFLQNHSVGIAPRLYAILEHCEDNCNDINSNKESKIQYRNIANRNACDYLLSKDTTHIILVSEHYGEDLLDYLDKCEKKNRNLTDKEKKELQYKLALALNNLHSKGLCHLDFTPENILIGPNGINICDFAKSTPIITKNPRHTHYSRKSPKNHLSENFNSNNTSFNFINPPPEAYCEFESCEPTVGKGAYMPPECWKIFWRLEENKIQFPLEELMDIDTYNRRSNYSYFNEFSRIHNKSPIKCQDRSMFYFNTRIADIYMLGIIMFWIWSDGGIWKYSDTRQDHRYQNLVFSDINFDVFRECRGWNKQLKSLLKKMLEPDPNKRITMSEILSDPWWKCPLDE
notes: kinase domain plus N-terminal extension (38 or more residues); E. coli
For B1, the Km was 48.0 ± 0.9 µM, the kcat was 1.3 ± 0.0083 s⁻¹ and the kcat/Km was 26700 M⁻¹ s⁻¹.
